The record followed here is patent US20230159645A1 (MERUS N V, published 2023).

Assay [1] addresses T1, human TGF-βRII (human, UniProt P37173 23-567).
T1 chain: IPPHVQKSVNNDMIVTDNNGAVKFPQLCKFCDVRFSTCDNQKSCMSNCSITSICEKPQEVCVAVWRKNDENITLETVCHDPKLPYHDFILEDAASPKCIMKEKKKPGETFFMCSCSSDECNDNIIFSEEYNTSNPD
The assay is described as follows: cell-based or functional assay.

The target of assay [2] is T1, human TGF-βRII. As to the kind of experiment: cell-based or functional assay.

B1: Reference TGF-βRII antibody TGF1 analog (antibody, human IgG1, kappa, V domains shown)
VH: QLQVQESGPGLVKPSETLSLTCTVSGGSISNSYFSWGWIRQPPGKGLEWIGSFYYGEKTYYNPSLKSRATISIDTSKSQFSLKLSSVTAADTAVYYCPRGPTMIRGVIDSWGQGTLVTVSS
VL: EIVLTQSPATLSLSPGERATLSCRASQSVRSYLAWYQQKPGQAPRLLIYDASNRATGIPARFSGSGSGTDFTLTISSLEPEDFAVYYCQQRSNWPPTFGQGTKVEIKR
Regarding B1, the “Fold difference pSMAD PD-1^null vs PD-1^+” value in the assay with human TGF-βRII [1] came to 1.3 fold. In addition, in the assay with human TGF-βRII [2], the “HEK-BLUE-PD-1 TGF-β Reporter Assay, HEK-Blue TGF-β cells” value was 0.806 and the “HEK-BLUE-PD-1 TGF-β Reporter Assay, HEK-Blue TGF-β-PD-1+ cells” value worked out at 0.655.
